Source: publication PMC7459404, “Structural insights into the enhanced carbapenemase efficiency of OXA‐655 compared to OXA‐10” (FEBS Open Bio, 2020)

Target: the molecule itself
Test: crystal structure; OXA-10 crystals (hanging drop, 4 °C, 20–23% PEG 3350, 0.2 M magnesium formate) soaked about 2 min with IPM; 1.89 Å, P212121, two chains in the asymmetric unit; dimer interface analysed with PISA

B1: OXA-10 class D β-lactamase (enzyme)
chain: GSITENTSWNKEFSAEAVNGVFVLCKSSSKSCATNDLARASKEYLPASTFKIPNAIIGLETGVIKNEHQVFKWDGKPRAMKQWERDLTLRGAIQVSAVPVFQQIAREVGEVRMQKYLKKFSYGNQNISGGIDKFWLEGQLRISAVNQVEFLESLYLNKLSASKENQLIVKEALVTEAAPEYLVHSKTGFSGVGTESNPGVAWWVGWVEKETEVYFFAFNMDIDNESKLPLRKSIPTKIMESEGIIGG
modifications: carboxylated lysine 70 (KCX70); S67 OG covalently bound to the ring-opened carbapenem (IPM or ETP, acyl-enzyme)
notes: Crystals were soaked with imipenem (6SKP) or ertapenem (6SKR); two chains (A, B) in the asymmetric unit; also called OXA-10_IPM; OXA-10_ETP
binding result: binds
